Results on three molecules are retold here after article PMC6208734, “Epitope determines efficacy of therapeutic anti-Tau antibodies in a functional assay with human Alzheimer Tau” (Acta Neuropathologica, 2018).

To fix the notation:
B1: antibody A (antibody, V domains shown)
VH: EVHLVESGGALVKPGGSLKLSCAASGFSFSKYGMSWVRQTPDKRLEWVATISSSGSRTYYPDSVKGQFTISRDNAKNTLYLQMSSLKSEDTAMYYCSISWDGAMDYWGQGTSVTVSS
VL: DVLMTQTPLSLPVSLGDQASISCKSSQSIVHSNGNTYLEWYLQKPGQSPKLLVYKVSNRFSGVPDRFSGSGSGTDFTLKISRVEAEDLGTYYCFQGSLVPWAFGGGTKLEIK
notes: heavy chain V-region; mouse gamma-1 IgG heavy chain constant region (from the expression vector); light chain V-region; mouse kappa light chain constant region (from the expression vector); source: CHOSXE cell line, electroporated, purified (Protein A, gel filtration); copies: 2 + 2
B2: antibody F (antibody, V domains shown)
VH: EVQLVQSGAEVKKPGESLKISCKGSGYTFSNYWIEWVRQMPGKGLEWMGEILPGSDSIKYEKNFKGQVTISADKSISTAYLQWSSLKASDTAMYYCARRGNYVDDWGQGTLVTVSS
VL: EIVLTQSPGTLSLSPGERATLSCRSSQSLVHSNQNTYLHWYQQKPGQAPRLLIYKVDNRFSGIPDRFSGSGSGTDFTLTISRLEPEDFAVYYCSQSTLVPLTFGGGTKVEIK
notes: as for B1
B3: antibody B (antibody, V domains shown)
VH: EVKVEESGGGLVQPGGSMKLSCVVSGFTFSNYWVNWVRQSPEKGLEWVAQIRLKSDNYATHYEESVKGRFTISRDDSKSSVYLQMNNLRAEDSGIYYCTNWEDYWGQGTTLTVSS
VL: DIVLTQSPASLAVSLGQRATISCRASQSVSTSRYSYIHWYQQKPGQPPKLLIKYASNLESGVPARFSGSGSGTDFTLNIHPLEEEDAATYYCHHSWEIPLTFGAGTKLELK
notes: as for B1

For the test, the target named is T1, monomeric recombinant Tau (2N4R) (Homo sapiens (Human)., UniProt P10636-8).
T1 construct: Tau (microtubule-associated protein Tau), isoform 2N4R, 441 amino acids; gene synthesized by DNA2.0; also called Tau monomer; monomeric Tau; source: Expi293 expression system, purified from culture medium (Ni Sepharose Excel, TEV cleavage, second Ni Sepharose Excel); not shown: 10His-TEV, N-terminal, cleaved
T1 sequence (P10636 other isoform, or with tags, fused parts or gaps): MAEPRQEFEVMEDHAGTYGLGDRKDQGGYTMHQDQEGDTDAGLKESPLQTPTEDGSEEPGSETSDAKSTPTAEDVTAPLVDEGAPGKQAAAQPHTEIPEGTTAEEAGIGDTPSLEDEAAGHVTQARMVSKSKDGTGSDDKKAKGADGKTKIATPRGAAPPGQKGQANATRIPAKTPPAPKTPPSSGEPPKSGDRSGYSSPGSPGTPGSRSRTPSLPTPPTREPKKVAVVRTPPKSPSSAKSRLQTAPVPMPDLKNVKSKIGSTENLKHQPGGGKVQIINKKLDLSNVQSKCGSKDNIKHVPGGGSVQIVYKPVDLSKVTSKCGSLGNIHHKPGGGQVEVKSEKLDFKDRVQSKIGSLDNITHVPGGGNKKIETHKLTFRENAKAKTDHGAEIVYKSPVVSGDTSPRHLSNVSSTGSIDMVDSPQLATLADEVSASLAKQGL
The experiment in a line: SPR; monomeric recombinant Tau and full-length IgG; BIAcore T200, 25 °C; extrinsic affinity; who was immobilised is not told for the monomer. The conditions noted are these: both partners purified.
B1: the Kd worked out at 0.16 nM, the koff turned out to be 5.2e-05 s⁻¹ and the kon was 360000 M⁻¹ s⁻¹.
For B2, the dissociation constant Kd was determined as 117 nM, the koff was 0.0205 s⁻¹ and the kon turned out to be 180000 M⁻¹ s⁻¹.
Taken in the same sequence, the figures for B3 were 20.7 nM, 0.000953 s⁻¹ and 50000 M⁻¹ s⁻¹.
